# Data reported in paper PMC4618531 (BMC Microbiology, 2015).
# Legend:
# [1] = target: T1, RsFabG2 (Ralstonia pseudosolanacearum, UniProt Q8XSV8); conditions: 50 μM NADPH, malonyl-ACP plus octanoyl-ACP or tetradecanoyl-ACP, 0.1 M sodium phosphate pH 7.0, 37 °C
# T1 construct: gene fabG2
# [2] = target: Ralstonia solanacearum FabG1 (3-ketoacyl-ACP reductase, RSc1052), N-terminal hexahistidine-tagged (Ralstonia solanacearum GMI1000); assay: SEC
# [3] = target: Ralstonia solanacearum FabG2 (3-ketoacyl-ACP reductase, RSp0359), N-terminal hexahistidine-tagged (Ralstonia solanacearum GMI1000); assay: SEC
# [4] = substrate: CC(=O)CC(=O)SCCNC(=O)CCNC(=O)[C@H](O)C(C)(C)COP(=O)(O)OP(=O)(O)OC[C@H]1O[C@@H](n2cnc3c(N)ncnc32)[C@H](O)[C@@H]1OP(=O)(O)O; assay: purified protein; conditions: 200 μM NADPH, 0.1 M sodium phosphate pH 7, 0.1 M LiCl
# [5] = substrate: NC(=O)C1=CN([C@@H]2O[C@H](COP(=O)(O)OP(=O)(O)OC[C@H]3O[C@@H](n4cnc5c(N)ncnc54)[C@H](OP(=O)(O)O)[C@@H]3O)[C@@H](O)[C@H]2O)C=CC1; assay: purified protein; conditions: 200 μM acetoacetyl-CoA, 0.1 M sodium phosphate pH 7, 0.1 M LiCl, varied: cofactor
molecule,measurement,setting,value
NC(=O)C1=CN([C@@H]2O[C@H](COP(=O)(O)OP(=O)(O)OC[C@H]3O[C@@H](n4cnc5c(N)ncnc54)[C@H](OP(=O)(O)O)[C@@H]3O)[C@@H](O)[C@H]2O)C=CC1 [NADPH],"reconstituted 3-ketoacyl-ACP reduction with EcFabB and EcFabZ, urea gel",[1],"Upon the addition of NADPH, a 3-ketoacyl-ACP reductase (EcFabG, RsFabG1 or RsFabG2) and EcFabZ"
"Ralstonia solanacearum FabG1 (3-ketoacyl-ACP reductase, RSc1052), N-terminal hexahistidine-tagged (enzyme)",stoichiometry N,[2],4
"Ralstonia solanacearum FabG2 (3-ketoacyl-ACP reductase, RSp0359), N-terminal hexahistidine-tagged (enzyme)",stoichiometry N,[3],4
EcFabG (Escherichia coli K-12) (protein) MNFEGKIALVTGASRGIGRAIAETLAARGAKVIGTATSENGAQAISDYLGANGKGLMLNVTDPASIESVLEKIRAEFGEVDILVNNAGITRDNLLMRMKDEEWNDIIETNLSSVFRLSKAVMRAMMKKRHGRIITIGSVVGTMGNGGQANYAAAKAGLIGFSKSLAREVASRGITVNVVAPGFIETDMTRALSDDQRAGILAQVPAGRLGGAQEIANAVAFLASDEAAYITGETLHVNGGMYMV,Km,[4],4372.6 ± 105.1 µM
same,Vmax,[4],97 µmol/min/mg
same,kcat,[4],45.28 ± 4.3 s⁻¹
same,Km,[5],5.41 ± 1.3 µM
same,Vmax,[5],3.54 µmol/min/mg
same,kcat,[5],1.65 ± 0.43 s⁻¹
